The values below come from patent US20220089730A1 (IMAGINAB, published 2022).

The target of assay [1] is T1, PSMA (Prostate-Specific Membrane Antigen), glutamate carboxypeptidase 2 (Homo sapiens, UniProt Q04609 1-750).
T1 construct: also called FOLH1; target antigen expressed on LNCaP-AR cells
Kind of assay: flow cytometry (FACS) on C4-2 XCL cells.

Assay [2] concerns the target T1, PSMA (Prostate-Specific Membrane …). Description: flow cytometry (FACS) on LNCaP-AR cells and on C4-2 XCL cells.

T1 sequence (Q04609 whole entry): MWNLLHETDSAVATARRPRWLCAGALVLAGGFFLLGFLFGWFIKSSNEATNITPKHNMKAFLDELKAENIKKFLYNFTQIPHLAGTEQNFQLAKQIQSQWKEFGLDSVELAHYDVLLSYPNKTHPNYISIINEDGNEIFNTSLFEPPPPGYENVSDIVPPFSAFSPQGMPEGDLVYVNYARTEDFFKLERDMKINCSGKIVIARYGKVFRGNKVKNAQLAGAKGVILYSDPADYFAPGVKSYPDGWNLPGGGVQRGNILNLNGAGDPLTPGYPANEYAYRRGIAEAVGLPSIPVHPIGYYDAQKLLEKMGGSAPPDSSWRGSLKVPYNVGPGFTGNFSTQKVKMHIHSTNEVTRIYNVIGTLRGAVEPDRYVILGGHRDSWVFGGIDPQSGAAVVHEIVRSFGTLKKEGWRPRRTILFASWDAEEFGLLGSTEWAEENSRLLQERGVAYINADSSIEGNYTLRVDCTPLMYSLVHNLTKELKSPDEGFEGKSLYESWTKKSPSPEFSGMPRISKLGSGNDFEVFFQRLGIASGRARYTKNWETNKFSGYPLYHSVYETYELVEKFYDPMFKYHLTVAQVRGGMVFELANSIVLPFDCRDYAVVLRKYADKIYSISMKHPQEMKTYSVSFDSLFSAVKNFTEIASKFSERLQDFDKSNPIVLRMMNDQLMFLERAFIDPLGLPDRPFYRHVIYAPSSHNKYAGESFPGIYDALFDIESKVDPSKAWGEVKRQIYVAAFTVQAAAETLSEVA

B1: IAB2M γ2 EH1 (other)
chain: DIVMTQSPSSLSASVGDRVTITCKASQDVGTAVDWYQQKPGKAPKLLIYWASTRHTGVPDRFTGSGSGTDFTLTISSLQPEDFADYFCQQYNSYPLTFGGGTKLEIKGSTSGGGSGGGSGGGGSSEVQLVQSGAEVKKPGASVKISCKTSGYTFTEYTIHWVKQASGKGLEWIGNINPNNGGTTYNQKFEDRATLTVDKSTSTAYMELSSLRSEDTAVYYCAAGWNFDYWGQGTTVTVSSERKCCVECPPCPGGGSSGGGSGGQPREPQVYTLPPSREEMTKNQVSLTCLVKGFYPSDIAVEWESNGQPENNYKTTPPMLDSDGSFFLYSKLTVDKSRWQQGNVFSCSVMHEALHNHYTQKSLSLSPGK
notes: Anti-PSMA minibody: homodimer of scFv-hinge-CH3
Consider B1, for which the binding result in assay [1] is “binds”.

B2: IAB2M γ1 EH1 (other)
chain: DIVMTQSPSSLSASVGDRVTITCKASQDVGTAVDWYQQKPGKAPKLLIYWASTRHTGVPDRFTGSGSGTDFTLTISSLQPEDFADYFCQQYNSYPLTFGGGTKLEIKGSTSGGGSGGGSGGGGSSEVQLVQSGAEVKKPGASVKISCKTSGYTFTEYTIHWVKQASGKGLEWIGNINPNNGGTTYNQKFEDRATLTVDKSTSTAYMELSSLRSEDTAVYYCAAGWNFDYWGQGTTVTVSSEPKSCDKTHTCPPCGGGSSGGGSGGQPREPQVYTLPPSRDELTKNQVSLTCLVKGFYPSDIAVEWESNGQPENNYKTTPPVLDSDGSFFLYSKLTVDKSRWQQGNVFSCSVMHEALHNHYTQKSLSLSPGK
notes: as for B1
For B2, the binding result in assay [2] was “binds”.

B3: IAB2M γ1 EH2 (other)
chain: DIVMTQSPSSLSASVGDRVTITCKASQDVGTAVDWYQQKPGKAPKLLIYWASTRHTGVPDRFTGSGSGTDFTLTISSLQPEDFADYFCQQYNSYPLTFGGGTKLEIKGSTSGGGSGGGSGGGGSSEVQLVQSGAEVKKPGASVKISCKTSGYTFTEYTIHWVKQASGKGLEWIGNINPNNGGTTYNQKFEDRATLTVDKSTSTAYMELSSLRSEDTAVYYCAAGWNFDYWGQGTTVTVSSEPKSSDKTHTCPPCGGGSSGGGSGGQPREPQVYTLPPSRDELTKNQVSLTCLVKGFYPSDIAVEWESNGQPENNYKTTPPVLDSDGSFFLYSKLTVDKSRWQQGNVFSCSVMHEALHNHYTQKSLSLSPGK
notes: as for B1
On to B3, for which the binding result in assay [2] is listed as “binds”.
